Test: Histopathology (H&E) after two-cycle therapy
Assay type: in vivo, athymic nu/nu mice
Details: mouse, in vivo
Procedure: To further assess tissue-level toxicity at the conclusion of the two-cycle therapy study, kidneys, livers, spleens, and tumors from representative mice were collected and evaluated histologically using hematoxylin and eosin (H&E) staining. Microscopic pathology was assessed and recorded in the MHL Pathology Database (Zaphod) according to a standardized five-point grading scale (normal, minimal, mild, moderate, marked). Terminology and criteria for pathological findings were consistent with the INHAND (International Harmonization of Nomenclature and Diagnostic Criteria) guidelines developed by the Society of Toxicologic Pathology.
At the conclusion of the two-cycle therapy study, kidneys, livers, spleens, and tumors from representative mice were collected and processed for histological evaluation using hematoxylin and eosin (H&E) staining. Microscopic pathology was assessed and recorded in the MHL Pathology Database (Zaphod) using a standardized five-point ordinal grading system (normal, minimal, mild, moderate, marked). Terminology and diagnostic criteria were consistent with the International Harmonization of Nomenclature and Diagnostic Criteria (INHAND) guidelines established by the Society of Toxicologic Pathology (https://www.toxpath.org/inhand.asp)([57]).

## C[C@@H](O)[C@H](NC(=O)[C@@H]1CSSC[C@H](NC(=O)[C@@H](Cc2ccccc2)NC(=O)CN2CCN(CC(=O)O)CCN(CC(=O)O)CCN(CC(=O)O)CC2)C(=O)N[C@@H](Cc2ccc(O)cc2)C(=O)N[C@H](Cc2c[nH]c3ccccc23)C(=O)N[C@@H](CCCCN)C(=O)N[C@@H]([C@@H](C)O)C(=O)N1)C(=O)O [^225Ac-DOTA-TATE, metal not drawn, reference compound]
  Glomerulopathy, percentage of mice with grade 0: 17%
  Glomerulopathy, percentage of mice with grade 1+: 33%
  Glomerulopathy, percentage of mice with grade 2+: 17%
  Glomerulopathy, percentage of mice with grade 3+: 33%
  Mice with mild, focal hepatocyte injury: 1 of 6
  Tubular damage, percentage of mice with grade 2+: 50%
  Tubular damage, percentage of mice with grade 3+: 33%
  Tubular damage, percentage of mice with grade 4+: 17%

Reference: doi:10.1101/2025.09.11.675134, “Biodistribution-Driven Discovery Identifies a Glycosidase-Cleavable Linker to Reprogram Radiotheranostics” (bioRxiv, 2025)
